B1: HDV Ribozyme (parent)
chain: GGCCGGCAUGGUCCCAGCCUCCUCGCUGGCGCCGGCUGGGCAACAUUCCGAGGGGACCGUCCCCUCGGUAAUGGCGAAUGGGACCCA

Variants of: B1
Assay: self-cleavage, relative activity (ratio to wild type); higher = more cleavage; co-transcriptional

Variant	self-cleavage
C33A G53C	0.332
C33G G39A	0.0997
C33G C86U	0.214
G34A G81C	0.0733
C33U C36U	0.519
G34A C62A	0.0692
G34A C62U	0.106
C33G C36U	0.0997
C33A U37G	0.119
C33A U37C	0.469
C33G A83C	0.252
C33U G81A	0.285
C33U C58A	1.06
G34A C61A	0.302
G34A C61G	0.104
G34A C36G	0.122
C33U U37C	0.923
C33A G74U	0.0755
C33A G74C	0.106
C33U A78C	0.0831
C33A U69A	0.325
G34A U47A	0.0997
C33G C41G	0.111
C33G C41U	0.119

Variant	self-cleavage
C33A C66U	0.241
C33A C66G	0.302
C33A C66A	0.485
C33A G38C	0.151
C33U U69A	0.898
C33U G52A	0.71
C33U G52U	0.747
C33G G81U	0.0354
G34A C58A	0.203
C33A U79A	0.128
C33U U46C	0.68
C33U U72A	0.346
C33U U72C	0.268
C33U C49A	0.946
G34A A83G	0.0817
G34A A83C	0.203
G34A C63G	0.133
G34A C41U	0.217
G34A C41A	0.157
C33U G73C	0.31
C33U G73A	0.554
C33U G73U	0.391
C33U G59C	1.01
C33A G67C	0.277

Variant	self-cleavage
C33G G53C	0.156
C33U C57U	0.719
C33U C57G	1.04
C33U C57A	0.935
G34A C44G	0.134
G34A C44U	0.0863
C33A C62A	0.344
C33A C62G	0.208
C33A C62U	0.241
G34C A43G	0
C33A G55A	0.159
C33A G35U	0.137
C33U G35U	0.383
C33U G35A	0.205
C33U G35C	0.237
G34A G55C	0.141
C33G G74A	0.0449
G34A G73U	0.0437
C33G G38A	0.0308
C33U A77C	0.298
C33U G55U	0.865
C33U G55C	0.831
G34A C85G	0.0978
G34A G38C	0.166

Variant	self-cleavage
C33G A43U	0.175
G34A A43G	0.125
G34C A45C	0.107
C33G U60C	0.196
C33G U60A	0.19
C33U G38A	0.172
C33G C48A	0
C33G G54A	0.332
G34A U60A	0.204
G34C	0.195
G34A	0.189
C33G U65G	0.222
C33G U65C	0.115
C33A C84G	0.219
C33U A87U	0.885
C33U A87G	0.79
G34A A45U	0.16
C33U G53A	0.95
C33U G53C	0.727
C33A U65A	0.332
C33U A70G	0.758
C33U C66G	0.946
C33U C66A	0.774
C33U C63A	0.716

Variant	self-cleavage
C33U G34U	0.219
C33U G68A	0.796
C33G G82A	0
C33U C85G	0.494
C33U G82U	0.266
G34A C75U	0.086
C33G C84A	0.231
C33A G40C	0.217
G34A C48A	0.259
C33U C62U	0.816
C33G C58U	0.147
C33G C58A	0.369
C33A U72C	0.151
G34A A87G	0.159
G34A A87C	0.126
C33G A70C	0.145
C33G C62U	0.259
C33G G52C	0.128
C33A G59A	0.343
G34A A71G	0.178
G34A A71U	0.185
C33G C49A	0.119
C33U A42U	0.345
C33G U72C	0.115

Variant	self-cleavage
C33A G81C	0.222
C33A G81A	0.0339
G34A G40U	0.0685
C33A U60C	0.415
C33G G35A	0.0604
C33A C61A	0.281
C33A C58U	0.142
C33A C58A	0.19
G34A G39U	0.287
C33U U65G	1.14
C33U U65A	0.739
C33U U65C	0.969
C33G U46A	0
G34A A70G	0.233
C33G C44A	0.0978
C33G C44U	0.172
C33G U79G	0.0665
C33A G54A	0.253
G34A G50C	0.267
C33G C66G	0.122
C33G U37G	0.161
C33G A42C	0.142
C33G A42G	0.0665
C33A G39A	0.162

Variant	self-cleavage
C33U G76U	1.02
C33U G76C	1.07
C33U C86G	0.884
C33U C86U	0.928
C33G G68C	0.0875
C33G G68U	0.173
G34A U46G	0.0332
G34A U46C	0.215
C33A G68A	0.157
C33U A51G	1.01
C33A G73C	0.149
G34A G76C	0.217
C33G A45U	0.185
C33G C64G	0.156
C33U A83C	0.242
C33U C44G	0.453
G34A G74A	0.0852
G34A G74U	0.0875
C33A C63A	0.196
C33A G34U	0.0712
G34C A42C	0.125
C33G U69G	0.123
C33G A78G	0
